{
  "source": "patent US9526786B2",
  "about": "“Thermostabilization of proteins” (The Trustee of Columbia University in the City of New York, priority 2007, dated 2016)",
  "molecules": {"B1": {"name": "wt-CocE: cocaine esterase of Rhodococcus sp. MB 1, SEQ ID NO:1 (protein, listed as Rhodococcus sp.)", "chain": "MVDGNYSVASNVMVPMRDGVRLAVDLYRPDADGPVPVLLVRNPYDKFDVFAWSTQSTNWLEFVRDGYAVVIQDTRGLFASEGEFVPHVDDEADAEDTLSWILEQAWCDGNVGMFGVSYLGVTQWQAAVSGVGGLKAIAPSMASADLYRAPWYGPGGALSVEALLGWSALIGTGLITSRSDARPEDAADFVQLAAILNDVAGAASVTPLAEQPLLGRLIPWVIDQVVDHPDNDESWQSISLFERLGGLATPALITAGWYDGFVGESLRTFVAVKDNADARLVVGPWSHSNLTGRNADRKFGIAATYPIQEATTMHKAFFDRHLRGETDALAGVPKVRLFVMGIDEWRDETDWPLPDTAYTPFYLGGSGAANTSTGGGTLSTSISGTESADTYLYDPADPVPSLGGTLLFHNGDNGPADQRPIHDRDDVLCYSTEVLTDPVEVTGTVSARLFVSSSAVDTDFTAKLVDVFPDGRAIALCDGIVRMRYRETLVNPTLIEAGEIYEVAIDMLATSNVFLPGHRIMVQVSSSNFPKYDRNSNTGGVIAREQLEEMCTAVNRIHRGPEHPSHIVLPIIKR"}},
  "key": {"[1]": {"conditions": "37° C., absence of DTT", "description": "Analysis of CocE action on cocaine cleavage is performed by utilizing the spectroscopic properties of cocaine, which maximally absorbs light at a 240 nm wavelength. CocE activity is measured by monitoring for a decrease in signal at A240, using various concentrations of cocaine, and determining the initial rate of the decrease. From these values the Vmax of the enzyme can be determined. By pre-incubating the enzyme at 37° C. for various times before monitoring for activity, the half life of CocE at 37° C. can be calculated.\nThe initial rates (of decay) were determined by following the change in the intrinsic absorbance of cocaine at 240 nm (6700 M^1 cm^1)(Xie et al., 1999) using a SpectraMax Plus 384 UV plate reader (Molecular Devices, Sunnyvale, Calif.) using SOFTmax Pro software (Version 3.1.2). The reaction was initiated by adding 100 μL of a 2× enzyme solution (100 mM phosphate buffer, pH 7.4 and 300 mM NaCl) to 100 μL of a 2× cocaine solution (50 μg/mL enzyme, 100 mM Phosphate Buffer, pH 7.4 and 300 mM NaCl). All assays were performed with 100 μM DTT unless indicated otherwise. […] For stability measurements, wild type and mutant enzymes were diluted to 2× concentration and incubated at 37° C. for the times indicated. At the end of each time point, an aliquot was removed and kinetic behavior was observed as outlined above.\n(§1) In vitro kinetic assays. […] Initial rates were then used to determine Michaelis-Menten parameters. To assess thermal stability, enzyme preparations were preincubated at 37° C. for various lengths of time, prior to measurement of residual activities (Table 1 and FIG. 23)."}, "[2]": {"experiment": "Michaelis-Menten kinetics of cocaine hydrolysis (absorbance at 240 nm)", "format": "biochemical", "conditions": "cocaine", "description": "The initial rates (of decay) were determined by following the change in the intrinsic absorbance of cocaine at 240 nm (6700 M^1 cm^1)(Xie et al., 1999) using a SpectraMax Plus 384 UV plate reader (Molecular Devices, Sunnyvale, Calif.) using SOFTmax Pro software (Version 3.1.2). The reaction was initiated by adding 100 μL of a 2× enzyme solution (100 mM phosphate buffer, pH 7.4 and 300 mM NaCl) to 100 μL of a 2× cocaine solution (50 μg/mL enzyme, 100 mM Phosphate Buffer, pH 7.4 and 300 mM NaCl). All assays were performed with 100 μM DTT unless indicated otherwise. Final cocaine concentrations were as follows: 125, 62.5, 31.25, 15.63, 7.81, 3.91, 1.95, and 0.977 μM. Vmax and Km values were calculated using Prism (GraphPad Software, San Diego). For stability measurements, wild type and mutant enzymes were diluted to 2× concentration and incubated at 37° C. for the times indicated. At the end of each time point, an aliquot was removed and kinetic behavior was observed as outlined above.\nas §1\nDetermination of Catalytic Efficiency. To determine the catalytic activity a spectrophometric assay was performed. Samples of L169K/G173Q CocE were added to a 96-well UV permeable plate containing increasing cocaine concentrations (0.5, 2.5, 5, 12.5, 25, 50, 100, and 150 μM) to give a final concentration of 10 ng/ml CocE in a final volume of 200 μl. The change in absorbance at 240 nm was measured over 20 minutes, with readings every 10 seconds, by a SpectraMax Plus 384 UV plate reader (Molecular Devices, Sunnyvale, Calif.) using SOFTmax Pro software (Version 3.1.2). The change in absorbance was converted to the change in concentration and furthermore the rate of decay per mole enzyme is determined (Kcat). Kcat and Km of the enzyme are determined using Prism (GraphPad software, San Diego)."}, "[3]": {"experiment": "Temperature-dependent decay in esterase activity (30 min pre-incubation)", "format": "biochemical", "description": "FIG. 26 is a graph showing temperature-dependent decay in esterase activity. 50 ng/ml wild-type CocE and the mutants were pre-incubated for 30 min at temperatures indicated (° C.) and activity measured (Xie et al., 1999). The activity of each mutant remaining (as a percentage of the maximal activity, Vmax, without preincubation) following pre-incubation are illustrated. Wild-type CocE (open bars) appears to inactivate between 30-35° C. whereas T172R/G173Q (shaded bars) and L169K (solid) both display enhance thermal stability (inactivation at 40-45° C.).\nTo test whether the improved enzymatic stability at 37° C. represents improved thermal stability of the protein fold, the capacity of the CocE at progressively higher temperatures were assessed (FIG. 26). The activity of wt CocE plummets precipitously after 30 min at approximately 30-35° C. Both L169K and T172R/G173Q each are inactivated at a higher temperature (40-45° C.). Circular dichroism analysis (near UV analysis) at varying temperatures, comparing wt-CocE and T172R/G173Q have melting temperatures in concordance with the loss of catalytic activity."}, "[4]": {"experiment": "Circular dichroism melting temperature of CocE proteins alone", "format": "physicochemical", "conditions": "circular dichroism, enzyme alone", "protocol": "Further characterization of the stability of wild type (WT) CocE and thermostable mutants was performed through circular dichroism, which detects small changes in protein conformation and structure. Analysis by repeated CD measurements at increasing temperatures allows analysis of the thermodynamics and melting temperature (TM) of the protein, so long as the melting is reversible (i.e. the protein resumes it's original conformation upon cooling). […] However CD is still of value in determining the temperature to unfolding."}, "[5]": {"tested_on": "cocaine-induced lethality", "experiment": "In vivo potency of protection against cocaine-induced lethality", "parameters": "species or system NIH-Swiss mice", "conditions": "i.v. pretreatment 1 min prior to i.p. cocaine"}, "[6]": {"tested_on": "cocaine-induced lethality", "experiment": "In vivo duration of protection against cocaine-induced lethality", "parameters": "species or system NIH-Swiss mice", "conditions": "1 mg i.v.; cocaine 180 mg/kg i.p.", "description": "In vivo protection against cocaine lethality. Male NIH-Swiss mice (25-32 g) were obtained from Harlan Inc. (Indianapolis, Ind.) and were housed in groups of 6 mice per cage. All mice were allowed ad libitum access to food and water, and were maintained on a 12-h light-dark cycle with lights on at 06.30 AM in a room kept at a temperature of 21-22° C. Experiments were performed in accordance with the Guide for the Care and Use of Laboratory Animals as adopted and promulgated by the National Institutes of Health. The experimental protocols were approved by the University Committee on the Use and Care of Animals at the University of Michigan.\nCocaine-induced toxicity was characterized by the occurrence of lethality, as defined by the cessation of observed movement and respiration. Mice were placed individually in Plexiglas observation chambers (16×28×20 cm high) to be habituated for 15 min before drug administration. Following intra-peritoneal (i.p.) cocaine administration, the mouse was immediately placed individually in the same chamber for observation. The presence or absence of lethality was recorded for 60 min following cocaine administration. The mouse was placed in a small restraint chamber (Outer tube diameter: 30 mm; Inner tube diameter: 24 mm) that left the tail exposed. The tail was cleansed with an alcohol wipe and a 30G1/2 precision glide needle (Fisher Scientific, Pittsburgh, Pa.) was inserted into one of the side veins for infusion. The i.v. injection volume of CocE or CocE mutant was 0.2 mL per mouse. Sterile gauze and pressure were applied to the injection site to staunch the bleeding.\nLethality was monitored following injection at 1, 5, 10, or 30 min, or 1, 2, 3, 4, 5 hours after enzyme administration. Each treatment used 8 mice to assess the percent of lethality (i.e., protection) in mice pretreated with a single dose of an esterase at a single time point.\nThese values were used to compare the degree of rightward shifts of cocaine's dose-response curve in the absence or presence of the enzyme pretreatment. In the time course study, a time point for duration of protection (i.e., 50% of lethality) was estimated by using each time course curve crossing 50% occurrence of lethality.\nEvaluation of in vivo half life. CocE is administered IV to the tail vein in a volume of 0.2 ml. Animals are challenged with 180 mg/kg cocaine delivered intraperitoneally at a given time after CocE administration."}, "[7]": {"conditions": "mouse, in vivo; cited from earlier work"}},
  "data": [
    {"molecule": "B1", "values": [
      {"measurement": "half-time of inactivation, τinact", "setting": "[1]", "result": "approximately 25 min"},
      {"measurement": "Kcat(mol · s^−1 · mol^−1)", "setting": "[2]", "result": 2323, "unit": "mol · s^−1 · mol^−1"},
      {"measurement": "temperature of inactivation", "setting": "[3]", "result": "30-35 °C"},
      {"measurement": "melting temperature", "setting": "[4]", "result": "approximately 39 °C"},
      {"measurement": "protection against cocaine-induced lethality", "setting": "[5]", "result": "protected"},
      {"measurement": "LT50, pretreatment time to 50% lethality", "setting": "[6]", "result": "approximately 14 min"},
      {"measurement": "effective half-life in the blood stream", "setting": "[7]", "result": "~10", "unit": "min"}
    ]}
  ]
}
